Several values for one entry are separate records, joined by “and”; a condition that tells them apart may be missing. Equal entries are not always repeated.
Assays:
[1] = target: TNF-α cell surface receptors on human HeLa and FS11 fibroblast cells (human); assay: 125I-TNF-α binding to cells; control without urine concentrate, condition C (4° C. together with TNF-α)
[2] = target: TNF-α cell surface receptors on human HeLa and FS11 fibroblast cells (human); assay: 125I-TNF-α binding to cells; control without urine concentrate, condition A (4° C. 90′ prior to application of TNF-α)
[3] = target: TNF-α cell surface receptors on human HeLa and FS11 fibroblast cells (human); assay: 125I-TNF-α binding to cells; control without urine concentrate, condition B (37° C. 90′ prior to application of TNF-α)
[4] = target: TNF-α cell surface receptors on human HeLa and FS11 fibroblast cells (human); assay: 125I-TNF-α binding to cells; urine concentrate holding TNF Inhibitory Protein applied at 37° C. 90′ prior to TNF-α and removed (condition B)

TNF-α cell surface receptors on human HeLa and FS11 fibroblast cells (human), sequence (P19438 30-455): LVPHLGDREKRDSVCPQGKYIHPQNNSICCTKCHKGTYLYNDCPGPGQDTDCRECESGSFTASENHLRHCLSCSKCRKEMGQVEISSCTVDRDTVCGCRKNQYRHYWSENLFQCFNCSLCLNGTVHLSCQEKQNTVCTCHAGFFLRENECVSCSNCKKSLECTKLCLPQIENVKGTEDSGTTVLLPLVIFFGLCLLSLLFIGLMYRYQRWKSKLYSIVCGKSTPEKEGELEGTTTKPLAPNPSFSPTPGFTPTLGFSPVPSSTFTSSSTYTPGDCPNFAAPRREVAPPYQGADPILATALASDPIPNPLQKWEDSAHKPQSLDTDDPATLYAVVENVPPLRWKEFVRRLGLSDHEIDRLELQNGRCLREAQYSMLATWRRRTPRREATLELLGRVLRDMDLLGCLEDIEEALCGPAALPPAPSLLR

Tumor Necrosis Factor-α (TNF-α) (from UniProt P01375 77-233) (ligand)
CPM [1]: 4630 CPM
CPM [2]: 5290 CPM
CPM [3]: 5560 CPM
CPM [4]: 4730 CPM and 4460 CPM

— patent US20050245731A1
